For test [1], the target named is chimeric V2R harboring the carboxy-terminal tail of the β2-adrenergic receptor (V2β2AR).
Test [2] deals with vasopressin type 2 receptor (V2R) (UniProt P30518).
Test [3] shares this target. The source holds these as a separate data set.

As for arginine vasopressin (AVP) (peptide), in test [1], the potency of AVP for recruitment of Rluc-mGsq to early endosomes (EbBRET with rGFP-Rab5), cells expressing V2β2AR was -7.82 LogEC50; the potency of AVP for recruitment of Rluc-mGsq to the plasma membrane (EbBRET with rGFP-CAAX), cells expressing V2β2AR was -7.97 LogEC50; the transduction coefficient (operational model) of AVP for recruitment of Rluc-mGs to the plasma membrane, cells expressing V2β2AR was found to be 8.04 Logτ/Ka; the transduction coefficient (operational model) of AVP for recruitment of Rluc-mGsq to early endosomes, cells expressing V2β2AR was 7.91 Logτ/Ka.

Regarding mini G protein mGs, in test [1], the AVP-mediated maximal efficacy of the AVP dose-response of Rluc-mGs recruitment to early endosomes (EbBRET with rGFP-Rab5), cells expressing V2β2AR was 0.15 ΔEbBRET and the AVP-mediated maximal efficacy of the AVP dose-response of Rluc-mGs recruitment to the plasma membrane (EbBRET with rGFP-CAAX), cells expressing V2β2AR was 0.392 ΔEbBRET. Further, in test [2], the AVP-mediated maximal efficacy of the AVP dose-response of Rluc-mGs recruitment to early endosomes (EbBRET with rGFP-Rab5), cells expressing V2R was 0.167 ΔEbBRET and the AVP-mediated maximal efficacy of the AVP dose-response of Rluc-mGs recruitment to the plasma membrane (EbBRET with rGFP-CAAX), cells expressing V2R is 0.3 ΔEbBRET. Further, in test [3], the AVP-induced maximal efficacy of the AVP dose-response of Rluc-mGs recruitment to early endosomes (EbBRET with rGFP-Rab5), parental HEK293 cells, 45 minutes is 0.18 ΔEbBRET; the AVP-induced maximal efficacy of the AVP dose-response of Rluc-mGs recruitment to early endosomes (EbBRET with rGFP-Rab5), Δβarr1/2 HEK293 cells, 45 minutes was 0.074 ΔEbBRET; the AVP-induced maximal efficacy of the AVP dose-response of Rluc-mGs recruitment to the plasma membrane (EbBRET with rGFP-CAAX), parental HEK293 cells, 10 minutes was 0.324 ΔEbBRET; the AVP-induced maximal efficacy of the AVP dose-response of Rluc-mGs recruitment to the plasma membrane (EbBRET with rGFP-CAAX), Δβarr1/2 HEK293 cells, 10 minutes was 0.376 ΔEbBRET.

mini G protein mGsq: in test [1], the AVP-mediated maximal efficacy of the AVP dose-response of Rluc-mGsq recruitment to early endosomes (EbBRET with rGFP-Rab5), cells expressing V2β2AR is 0.061 ΔEbBRET and the AVP-mediated maximal efficacy of the AVP dose-response of Rluc-mGsq recruitment to the plasma membrane (EbBRET with rGFP-CAAX), cells expressing V2β2AR is 0.183 ΔEbBRET. In test [2], the AVP-mediated maximal efficacy of the AVP dose-response of Rluc-mGsq recruitment to early endosomes (EbBRET with rGFP-Rab5), cells expressing V2R is 0.05 ΔEbBRET and the AVP-mediated maximal efficacy of the AVP dose-response of Rluc-mGsq recruitment to the plasma membrane (EbBRET with rGFP-CAAX), cells expressing V2R is 0.161 ΔEbBRET. In addition, in test [3], the AVP-induced maximal efficacy of the AVP dose-response of Rluc-mGsq recruitment to early endosomes (EbBRET with rGFP-Rab5), parental HEK293 cells, 45 minutes is 0.05 ΔEbBRET; the AVP-induced maximal efficacy of the AVP dose-response of Rluc-mGsq recruitment to early endosomes (EbBRET with rGFP-Rab5), Δβarr1/2 HEK293 cells, 45 minutes was 0.024 ΔEbBRET; the AVP-induced maximal efficacy of the AVP dose-response of Rluc-mGsq recruitment to the plasma membrane (EbBRET with rGFP-CAAX), parental HEK293 cells, 10 minutes is 0.168 ΔEbBRET; the AVP-induced maximal efficacy of the AVP dose-response of Rluc-mGsq recruitment to the plasma membrane (EbBRET with rGFP-CAAX), Δβarr1/2 HEK293 cells, 10 minutes was 0.18 ΔEbBRET.

Values taken from doi:10.1101/2023.04.01.535208.
